Assay results published in article PMC10480500, “Cryo-EM structure of a bacteriophage M13 mini variant” (Nature Communications, 2023).

B1: minor coat protein pVI (natural protein, bacteriophage M13, UniProt P69532 1-112, looked up)
chain: MPVLLGIPLLLRFLGFLLVTLFGYLLTFLKKGFGKIAIAISLFLALIIGLNSILVGYLSDISAQLPSDFVQGVQLILPSNALPCFYVILSVKAAIFIFDVKQKIVSYLDWDK
notes: 112 amino acids, no post-translational processing reported; residues 1 and 111-112 not built in the model; 5 copies in the particle; source: E. coli TG1 with pUC19-minigenome, infected with helper phage M13KO7; in the mini phage purified from the supernatant (cobalt resin, sucrose density gradient)
B2: minor coat protein pIX (natural protein, bacteriophage M13, UniProt P69538 1-32, looked up)
chain: MSVLVYSFASFVLGWCLRSGITYFTRLMETSS
notes: Minor coat protein pIX of bacteriophage M13 (encoded by helper phage M13KO7); 32 residues, no signal peptide; 5 copies in the particle (layer 2); source: E. coli TG1 with pUC19-minigenome, infected with helper phage M13KO7; in the mini phage purified from the supernatant (cobalt resin, sucrose density gradient)
B3: minor coat protein pVII (natural protein, bacteriophage M13, UniProt P69535 1-33, looked up)
chain: MEQVADFDTIYQAMIQISVVLCFALGIIAGGQR
notes: Minor coat protein pVII of bacteriophage M13 (encoded by helper phage M13KO7); 33 residues, no signal peptide; residues 1-4 not built in the model; 5 copies in the particle (layer 1); source: E. coli TG1 with pUC19-minigenome, infected with helper phage M13KO7; in the mini phage purified from the supernatant (cobalt resin, sucrose density gradient)

Tests used:
[1] = target: the molecule itself; assay: cryo-EM structure; purified M13 mini phage particle (assembled in E. coli TG1 with helper phage M13KO7), 0.6-0.8 mg/ml; whole particle 3.5 Å with 5-fold symmetry; top, middle and bottom segments refined separately at 3.5, 3.1 and 3.3 Å
minor coat protein pVII = target: B3; assay: as above; conditions: both partners purified

Binder	stoichiometry N [1]	binding result (minor coat protein pVII)
B1	5	–
B2	–	binds
B3	5	–
